{
  "source": "paper PMC2173848",
  "about": "(The Journal of Cell Biology, 2002)",
  "biological_target": "T1, GST-Sec34p (S. cerevisiae, UniProt P40094 1-801)",
  "T1 sequence (looked up)": "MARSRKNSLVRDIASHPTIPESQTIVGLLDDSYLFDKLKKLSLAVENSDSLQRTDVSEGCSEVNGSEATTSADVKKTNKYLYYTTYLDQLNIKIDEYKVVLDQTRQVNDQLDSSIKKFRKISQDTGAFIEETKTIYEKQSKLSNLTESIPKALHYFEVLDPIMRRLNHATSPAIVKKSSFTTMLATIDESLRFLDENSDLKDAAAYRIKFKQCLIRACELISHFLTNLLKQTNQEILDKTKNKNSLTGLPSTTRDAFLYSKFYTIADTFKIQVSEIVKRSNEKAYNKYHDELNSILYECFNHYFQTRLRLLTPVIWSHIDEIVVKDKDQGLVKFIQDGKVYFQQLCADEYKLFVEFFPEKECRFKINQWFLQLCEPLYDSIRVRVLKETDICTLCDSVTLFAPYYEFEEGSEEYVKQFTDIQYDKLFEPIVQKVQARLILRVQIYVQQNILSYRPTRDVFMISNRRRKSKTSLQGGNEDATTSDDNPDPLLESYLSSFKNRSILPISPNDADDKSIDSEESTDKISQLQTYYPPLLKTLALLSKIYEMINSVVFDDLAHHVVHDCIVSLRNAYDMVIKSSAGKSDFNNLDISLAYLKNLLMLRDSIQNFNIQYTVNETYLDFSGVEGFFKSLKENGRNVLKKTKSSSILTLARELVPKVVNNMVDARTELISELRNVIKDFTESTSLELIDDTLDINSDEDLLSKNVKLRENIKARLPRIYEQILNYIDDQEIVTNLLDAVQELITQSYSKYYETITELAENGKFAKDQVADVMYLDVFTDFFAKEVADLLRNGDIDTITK",
  "experiment": "pull-down",
  "data": [
    {"binder": "Sec35p (natural protein, S. cerevisiae (endogenous in yeast), UniProt P53271 1-262, looked up) MDFLNDDELDLDLPVTAEISKELFATEIEKYRESETNGTDVDNFDVDRFLVQKNFHYLPLDSLIRDLSGLSQKMVQTLLEQIRSNYDDYLTFSNTYTDEENETLINLEKTQSDLQKFMTQLDHLIKDDISNTQEIIKDVLEYLKKLDEIYGSLRNHSQLTEALSLGKRLSKSLHEMCGIEPLEEEICSGLIEQLYKLITASRRILESCADSNSPYIHHLRNDYQDLLQEFQISLKILTEKCLENPSSLQNLSLTLVSIIKTA", "values": [
      {"measurement": "percent recovered on the beads", "result": "~3", "unit": "%"}
    ]}
  ]
}
